What all share (conditions): both partners purified
Assay [1] addresses T1, Kapβ2 (untagged, GST removed) (human, UniProt Q92973-2 1-890).
T1 construct: Karyopherin β2 (Kapβ2, Transportin-1, TNPO1), human; used for ITC and turbidity assays; also called Karyopherin-β2; Transportin-1; source: E. coli BL21 (DE3), purified (GSH column, Tev cleavage, anion exchange, SEC Superdex200)
T1 sequence (looked up): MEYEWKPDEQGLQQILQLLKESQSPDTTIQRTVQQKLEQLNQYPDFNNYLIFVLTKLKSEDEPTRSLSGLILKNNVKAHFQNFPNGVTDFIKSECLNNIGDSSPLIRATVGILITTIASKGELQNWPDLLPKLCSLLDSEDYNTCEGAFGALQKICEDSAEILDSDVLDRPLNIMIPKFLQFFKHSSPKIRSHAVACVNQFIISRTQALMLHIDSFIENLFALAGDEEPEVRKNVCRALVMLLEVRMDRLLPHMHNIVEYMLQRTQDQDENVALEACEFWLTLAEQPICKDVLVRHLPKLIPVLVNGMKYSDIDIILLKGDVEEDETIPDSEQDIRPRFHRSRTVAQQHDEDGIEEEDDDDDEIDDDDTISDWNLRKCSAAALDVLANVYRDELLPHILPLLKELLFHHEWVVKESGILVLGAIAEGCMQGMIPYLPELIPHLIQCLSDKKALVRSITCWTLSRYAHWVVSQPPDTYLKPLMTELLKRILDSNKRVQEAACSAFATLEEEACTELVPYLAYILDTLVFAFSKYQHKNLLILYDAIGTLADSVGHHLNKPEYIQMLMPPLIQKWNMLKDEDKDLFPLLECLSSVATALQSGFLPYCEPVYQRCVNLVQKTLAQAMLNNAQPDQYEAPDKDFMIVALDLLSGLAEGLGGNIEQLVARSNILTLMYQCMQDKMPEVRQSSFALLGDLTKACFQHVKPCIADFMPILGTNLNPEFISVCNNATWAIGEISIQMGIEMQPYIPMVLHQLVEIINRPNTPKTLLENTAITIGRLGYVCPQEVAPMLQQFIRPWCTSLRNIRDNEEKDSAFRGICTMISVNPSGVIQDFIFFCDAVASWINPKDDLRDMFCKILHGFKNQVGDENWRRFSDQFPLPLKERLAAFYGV
Put plainly: ITC; 10 μM Kapβ2 in the cell, 100 μM or 200 μM MBP-FUS protein in the syringe; 20 mM Tris–HCl, 150 mM NaCl, 10% glycerol, 2 mM BME; 20 °C; single class of binding sites, global analysis of duplicates or triplicates.

Assay [2] addresses T2, GST-Kapβ2 (Karyopherin-β2) (human, UniProt Q92973-2 1-890).
T2 construct: Karyopherin β2 (Kapβ2, Transportin-1, TNPO1), human; GST-importin eluted with glutathione and immobilised again on GSH beads for pull-downs; also called Transportin-1; TNPO1; source: E. coli BL21 (DE3), purified (GSH Sepharose, anion exchange, SEC)
T2 sequence (looked up): T1 sequence (looked up)
The assay can be described thus: pull-down; 4–8 μM GST-importin (or GST) immobilised on 50 μL GSH beads; 4–8 μM MBP-FUS protein or GSP1 added in 100 μL; 20 mM HEPES pH 7.4, 110 mM potassium acetate, 2 mM magnesium acetate, 2 mM DTT, 15% glycerol; 30 min at 25 °C, three washes; Coomassie-stained SDS-PAGE.

In assay [3] the target is T1, Kapβ2 (untagged, GST removed). Put plainly: ITC; reversed set-up: 10 μM MBP-FUS protein in the cell, 100 μM or 200 μM Kapβ2 in the syringe; 20 mM Tris–HCl, 150 mM NaCl, 10% glycerol, 2 mM BME; 20 °C; single class of binding sites; 'apparent' KD for FUS(1–370).

Numbering of substitutions follows the chain as printed. Names may count otherwise.

B1: MBP-FUS PY-NLS (residues 475–526) (domain or fragment, UniProt P35637 475-526, looked up)
chain: GRGGYDRGGYRGRGGDRGGFRGGRGGGDRGGFGPGKMDSRGEHRQDRRERPY
notes: FUS residues 475–526 (PY-NLS); also called FUS(475–526); WT FUS^PY-NLS; source: E. coli BL21 (DE3), purified (amylose resin, SEC); not shown: MBP, N-terminal, kept
As to B1, in assay [1], the Kd was determined as 31 nM.

B2: MBP-FUS PY-NLS (P525L) (residues 475–526) (domain or fragment, UniProt P35637 475-526, looked up)
chain: B1 chain with P51L
notes: FUS residues 475–526 with the ALS mutation P525L; also called FUS(P525L)^PY-NLS; source: E. coli BL21 (DE3), purified (amylose resin, SEC); not shown: MBP, N-terminal, kept
As to B2, the Kd in assay [1] was found to be 180 nM.

B3: MBP-FUS(277–500) (domain or fragment, UniProt P35637 277-500, looked up)
chain: SEQDNSDNNTIFVQGLGENVTIESVADYFKQIGIIKTNKKTGQPMINLYTDRETGKLKGEATVSFDDPPSAKAAIDWFDGKEFSGNPIKVSFATRRADFNRGGGNGRGGRGRGGPMGRGGYGGGGSGGGGRGGFPSGGGGGGGQQRAGDWKCPNPTCENMNFSWRNECNQCKAPKPDGPGGGPGGSHMGGNYGDDRRGGRGGYDRGGYRGRGGDRGGFRGGRGG
notes: source: E. coli BL21 (DE3), purified (amylose resin, SEC); not shown: MBP, N-terminal, kept
Take B3: the binding result in assay [2] is given as “binds”.

B4: MBP-FUS(1–370) (domain or fragment, UniProt P35637 1-370, looked up)
chain: MASNDYTQQATQSYGAYPTQPGQGYSQQSSQPYGQQSYSGYSQSTDTSGYGQSSYSSYGQSQNTGYGTQSTPQGYGSTGGYGSSQSSQSSYGQQSSYPGYGQQPAPSSTSGSYGSSSQSSSYGQPQSGSYSQQPSYGGQQQSYGQQQSYNPPQGYGQQNQYNSSSGGGGGGGGGGNYGQDQSSMSSGGGSGGGYGNQDQSGGGGSGGYGQQDRGGRGRGGSGGGGGGGGGGYNRSSGGYEPRGRGGGRGGRGGMGGSDRGGFNKFGGPRDQGSRHDSEQDNSDNNTIFVQGLGENVTIESVADYFKQIGIIKTNKKTGQPMINLYTDRETGKLKGEATVSFDDPPSAKAAIDWFDGKEFSGNPIKVSFAT
notes: FUS residues 1–370 (missing RGG2-ZnF-RGG3-PYNLS); also called FUS LC-RGG1; source: E. coli BL21 (DE3), purified (amylose resin, SEC); not shown: MBP, N-terminal, kept
B4: the Kd in assay [3] worked out at 35000 nM.

B5: MBP-FUS(1–500) (domain or fragment, UniProt P35637 1-500, looked up)
chain: MASNDYTQQATQSYGAYPTQPGQGYSQQSSQPYGQQSYSGYSQSTDTSGYGQSSYSSYGQSQNTGYGTQSTPQGYGSTGGYGSSQSSQSSYGQQSSYPGYGQQPAPSSTSGSYGSSSQSSSYGQPQSGSYSQQPSYGGQQQSYGQQQSYNPPQGYGQQNQYNSSSGGGGGGGGGGNYGQDQSSMSSGGGSGGGYGNQDQSGGGGSGGYGQQDRGGRGRGGSGGGGGGGGGGYNRSSGGYEPRGRGGGRGGRGGMGGSDRGGFNKFGGPRDQGSRHDSEQDNSDNNTIFVQGLGENVTIESVADYFKQIGIIKTNKKTGQPMINLYTDRETGKLKGEATVSFDDPPSAKAAIDWFDGKEFSGNPIKVSFATRRADFNRGGGNGRGGRGRGGPMGRGGYGGGGSGGGGRGGFPSGGGGGGGQQRAGDWKCPNPTCENMNFSWRNECNQCKAPKPDGPGGGPGGSHMGGNYGDDRRGGRGGYDRGGYRGRGGDRGGFRGGRGG
notes: FUS residues 1–500; in the turbidity assays MBP is cut off by Tev during the assay; source: E. coli BL21 (DE3), purified (amylose resin, SEC); not shown: MBP, N-terminal, kept
For the molecule B5, the Kd in assay [3] amounted to 160 nM.

B6: MBP-FUS (full length) (natural protein, UniProt P35637 1-526, looked up)
chain: MASNDYTQQATQSYGAYPTQPGQGYSQQSSQPYGQQSYSGYSQSTDTSGYGQSSYSSYGQSQNTGYGTQSTPQGYGSTGGYGSSQSSQSSYGQQSSYPGYGQQPAPSSTSGSYGSSSQSSSYGQPQSGSYSQQPSYGGQQQSYGQQQSYNPPQGYGQQNQYNSSSGGGGGGGGGGNYGQDQSSMSSGGGSGGGYGNQDQSGGGGSGGYGQQDRGGRGRGGSGGGGGGGGGGYNRSSGGYEPRGRGGGRGGRGGMGGSDRGGFNKFGGPRDQGSRHDSEQDNSDNNTIFVQGLGENVTIESVADYFKQIGIIKTNKKTGQPMINLYTDRETGKLKGEATVSFDDPPSAKAAIDWFDGKEFSGNPIKVSFATRRADFNRGGGNGRGGRGRGGPMGRGGYGGGGSGGGGRGGFPSGGGGGGGQQRAGDWKCPNPTCENMNFSWRNECNQCKAPKPDGPGGGPGGSHMGGNYGDDRRGGRGGYDRGGYRGRGGDRGGFRGGRGGGDRGGFGPGKMDSRGEHRQDRRERPY
notes: Fused in Sarcoma (FUS), full length; in the turbidity assays MBP is cut off by Tev during the assay; also called FL-FUS; MBP-FL FUS; source: E. coli BL21 (DE3), purified (amylose resin, SEC); not shown: MBP, N-terminal, kept
On to B6, for which the binding result in assay [2] is “binds”.

B7: MBP-FUS(1–430) (domain or fragment, UniProt P35637 1-430, looked up)
chain: MASNDYTQQATQSYGAYPTQPGQGYSQQSSQPYGQQSYSGYSQSTDTSGYGQSSYSSYGQSQNTGYGTQSTPQGYGSTGGYGSSQSSQSSYGQQSSYPGYGQQPAPSSTSGSYGSSSQSSSYGQPQSGSYSQQPSYGGQQQSYGQQQSYNPPQGYGQQNQYNSSSGGGGGGGGGGNYGQDQSSMSSGGGSGGGYGNQDQSGGGGSGGYGQQDRGGRGRGGSGGGGGGGGGGYNRSSGGYEPRGRGGGRGGRGGMGGSDRGGFNKFGGPRDQGSRHDSEQDNSDNNTIFVQGLGENVTIESVADYFKQIGIIKTNKKTGQPMINLYTDRETGKLKGEATVSFDDPPSAKAAIDWFDGKEFSGNPIKVSFATRRADFNRGGGNGRGGRGRGGPMGRGGYGGGGSGGGGRGGFPSGGGGGGGQQRAGDWKCPN
notes: FUS residues 1–430 (missing ZnF-RGG3-PYNLS); source: E. coli BL21 (DE3), purified (amylose resin, SEC); not shown: MBP, N-terminal, kept
In the case of B7, in assay [2], the binding result is “binds”.

B8: MBP-FUS(371–452) (RGG2-ZnF) (domain or fragment, UniProt P35637 371-452, looked up)
chain: RRADFNRGGGNGRGGRGRGGPMGRGGYGGGGSGGGGRGGFPSGGGGGGGQQRAGDWKCPNPTCENMNFSWRNECNQCKAPKP
notes: also called FUS RGG2-ZnF; source: E. coli BL21 (DE3), purified (amylose resin, SEC); not shown: MBP, N-terminal, kept
With B8, in assay [1], the Kd turned out to be 4000 nM.

B9: MBP-FUS(121–500) (domain or fragment, UniProt P35637 121-500, looked up)
chain: SYGQPQSGSYSQQPSYGGQQQSYGQQQSYNPPQGYGQQNQYNSSSGGGGGGGGGGNYGQDQSSMSSGGGSGGGYGNQDQSGGGGSGGYGQQDRGGRGRGGSGGGGGGGGGGYNRSSGGYEPRGRGGGRGGRGGMGGSDRGGFNKFGGPRDQGSRHDSEQDNSDNNTIFVQGLGENVTIESVADYFKQIGIIKTNKKTGQPMINLYTDRETGKLKGEATVSFDDPPSAKAAIDWFDGKEFSGNPIKVSFATRRADFNRGGGNGRGGRGRGGPMGRGGYGGGGSGGGGRGGFPSGGGGGGGQQRAGDWKCPNPTCENMNFSWRNECNQCKAPKPDGPGGGPGGSHMGGNYGDDRRGGRGGYDRGGYRGRGGDRGGFRGGRGG
notes: as for B3
For the molecule B9, the binding result in assay [2] is reported as “binds”.

B10: MBP-FUS(371–500) (RGG2-ZnF-RGG3) (domain or fragment, UniProt P35637 371-500, looked up)
chain: RRADFNRGGGNGRGGRGRGGPMGRGGYGGGGSGGGGRGGFPSGGGGGGGQQRAGDWKCPNPTCENMNFSWRNECNQCKAPKPDGPGGGPGGSHMGGNYGDDRRGGRGGYDRGGYRGRGGDRGGFRGGRGG
notes: also called FUS RGG2-ZnF-RGG3; source: E. coli BL21 (DE3), purified (amylose resin, SEC); not shown: MBP, N-terminal, kept
In assay [1], B10 had a Kd of 170 nM.

B11: MBP-FUS(1–452) (domain or fragment, UniProt P35637 1-452, looked up)
chain: MASNDYTQQATQSYGAYPTQPGQGYSQQSSQPYGQQSYSGYSQSTDTSGYGQSSYSSYGQSQNTGYGTQSTPQGYGSTGGYGSSQSSQSSYGQQSSYPGYGQQPAPSSTSGSYGSSSQSSSYGQPQSGSYSQQPSYGGQQQSYGQQQSYNPPQGYGQQNQYNSSSGGGGGGGGGGNYGQDQSSMSSGGGSGGGYGNQDQSGGGGSGGYGQQDRGGRGRGGSGGGGGGGGGGYNRSSGGYEPRGRGGGRGGRGGMGGSDRGGFNKFGGPRDQGSRHDSEQDNSDNNTIFVQGLGENVTIESVADYFKQIGIIKTNKKTGQPMINLYTDRETGKLKGEATVSFDDPPSAKAAIDWFDGKEFSGNPIKVSFATRRADFNRGGGNGRGGRGRGGPMGRGGYGGGGSGGGGRGGFPSGGGGGGGQQRAGDWKCPNPTCENMNFSWRNECNQCKAPKP
notes: as for B3
As to B11, the binding result in assay [2] is listed as “binds”.
